Test results taken from the supplement of paper PMC9170038.

System: MS2 coat protein
Experiment: apparent KD of MS2 coat protein; designed switch direction (-1 OFF switch, 1 ON switch): 1; higher = weaker reporter binding
How it was run: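 Stalled E. coli RNA polymerase transcribed designed RNA switches on Illumina chips, which were then titrated with SNAP-549-labelled MS2 coat protein, doubling from 0.7 or 1.5 nM to 3 µM. Steps lasted from 0.8–1.5 h at the lowest concentration to 10–20 min at the highest. The apparent KD is each design's median over clusters of curve-fitted normalised fluorescence.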

[1] = input ligand: microRNA oligo, concentration not stated
[2] = Eterna round: R95, input ligand: FMN 200 uM
[3] = Eterna round: R95, input ligand: microRNA oligo, concentration not stated
[4] = Eterna round: R95, input ligand: none

UUAAUAAUGUUAGGAUAUACAUGAGGAAUCCUCGUAGAAGGAACAUGACAUGAGGAUCACCCAUGUAGCGCUCAGAAGAGCGCA [Mat - Same State NG 1 - JL mod - D47] (Eterna round: R96, puzzle: Same State NG 1)
apparent KD of MS2 coat protein (input ligand: FMN 200 uM): 138 nM
apparent KD of MS2 coat protein [1]: 31.3 nM
apparent KD of MS2 coat protein (input ligand: none): 135 nM

UUAAUGAAGUAAGGAUAUACAUGAGGAUCACUCGUAGAAGGUACUAUACAUGAGGAUCACCCAUGUGCCGGUCCGUAGACUGGA [JL SSNG1 1.03] (Eterna round: R96, puzzle: Same State NG 1)
apparent KD of MS2 coat protein (input ligand: FMN 200 uM): 554 nM
apparent KD of MS2 coat protein [1]: 184 nM
apparent KD of MS2 coat protein (input ligand: none): 1090 nM

UUAAUGAUGAAAGGAUAUACAUGAGGAAUUCUCGUAGAAGGUUCAUGACAUGAGGAUCACCCAUGUAUCGCUCAGAAGAGCGUA [Mat - Same State NG 1 - JL mod - D29] (Eterna round: R96, puzzle: Same State NG 1)
apparent KD of MS2 coat protein (input ligand: FMN 200 uM): 47.4 nM
apparent KD of MS2 coat protein [1]: 36 nM
apparent KD of MS2 coat protein (input ligand: none): 85.4 nM

UUAAUGAUGAAAGGAUAUACAUGAGGAAUUCUCGUAGAAGGUUCAUGACAUGAGGAUCACCCAUGUAUCGCUCGAAAGAGCGUA [Mat - Same State NG 1 - JL mod - D30] (Eterna round: R96, puzzle: Same State NG 1)
apparent KD of MS2 coat protein (input ligand: FMN 200 uM): 149 nM
apparent KD of MS2 coat protein [1]: 11.6 nM
apparent KD of MS2 coat protein (input ligand: none): 47.1 nM

UUAAUGAUGAUAGGAUAUACAUGAGGAAUUCUCGUAGAAGGAUCAUGACAUGAGGAUCACCCAUGUAUCGCUCAGAAGAGCGUA [Mat - Same State NG 1 - JL mod - D32] (Eterna round: R96, puzzle: Same State NG 1)
apparent KD of MS2 coat protein (input ligand: FMN 200 uM): 1340 nM
apparent KD of MS2 coat protein [1]: 368 nM
apparent KD of MS2 coat protein (input ligand: none): 528 nM

UUAAUUAAUUAAUUAUACAUGAGGAUCACCCAUGUAAGUGAUCAGGAUAUCAGCUCGAUUAGAGCUGAGAAGGGAUCCAUGUAA [SSNG3/14-A2] (Eterna round: R96, puzzle: Same State NG 3)
apparent KD of MS2 coat protein [1]: 78 nM

UUAAUUAAUUAAUUAUACAUGAGGAUCACCCAUGUAAGUGAUCAGGAUAUCAGCUCGUGUAGAGCUGAGAAGGGAUACAUGUAA [SSNG3/12-A4] (Eterna round: R96, puzzle: Same State NG 3)
apparent KD of MS2 coat protein [1]: 147 nM

UUAAUUAGUUGAGGAUAUUAUGUCGACUGAGACGACAUGAGGAUCACCCAUGUGAGAAGUGGUUUUAAGAAGGCAACAUUCAUA [JR_SSNG2_Sub088] (Eterna round: R96, puzzle: Same State NG 2)
apparent KD of MS2 coat protein (input ligand: FMN 200 uM): 55.9 nM
apparent KD of MS2 coat protein [1]: 83 nM
apparent KD of MS2 coat protein (input ligand: none): 141 nM

UUACAGCACGGGUAGGAUAUGUAGGGUGGUACAUGAGGAUCACCCAUGUAUCCACCCUUCUAACGGCAGAAGGGCCUGUCGCUGC [Riarve] (Eterna round: R96, puzzle: Same State 2)
apparent KD of MS2 coat protein (input ligand: FMN 200 uM): 28.3 nM
apparent KD of MS2 coat protein [1]: 11.2 nM
apparent KD of MS2 coat protein (input ligand: none): 27.5 nM

UUACAGUGCGGGUAGGAUAUGUAGGGUGGUACAUGAGGAUCACCCAUGUAUCCACCCUUCUACCGGCAGAAGGGCCUGUCACUGC [Enlaeror] (Eterna round: R96, puzzle: Same State 2)
apparent KD of MS2 coat protein (input ligand: FMN 200 uM): 17.2 nM
apparent KD of MS2 coat protein [1]: 9.64 nM
apparent KD of MS2 coat protein (input ligand: none): 17 nM

UUACUCAUGUAAGGAUAUGCAGCCGUUUCGGCUGCAGAAGGUACUAUAAUACAUGAGGAUCACCCAUGUCUCUAUAAUUUAGUG [JL SSNG1 1.30] (Eterna round: R96, puzzle: Same State NG 1)
apparent KD of MS2 coat protein (input ligand: FMN 200 uM): 102 nM
apparent KD of MS2 coat protein [1]: 38.6 nM
apparent KD of MS2 coat protein (input ligand: none): 49.7 nM

UUAUACUAGAGAGGAUAUGCAGAGGAUCACCCUGCAGAAGGCUCGUUAGAGAGGAUAUGCAGAGGAUCACCCUGCAGAAGGCUC [pwkr ssNG DX.23] (Eterna round: R96, puzzle: Same State NG 1)
apparent KD of MS2 coat protein (input ligand: FMN 200 uM): 17.2 nM
apparent KD of MS2 coat protein [1]: 8.62 nM
apparent KD of MS2 coat protein (input ligand: none): 15.2 nM

UUAUCUCAGACAUGAGGAUCACCCAUGUUUUUUUGUCUUAGACAGGAUAUAGUAGUAUCGAAAUACUAGAAGGGUCAUUUUAUU [JR_SSNG3_Sub023] (Eterna round: R96, puzzle: Same State NG 3)
apparent KD of MS2 coat protein (input ligand: FMN 200 uM): 18.4 nM
apparent KD of MS2 coat protein [1]: 23.5 nM
apparent KD of MS2 coat protein (input ligand: none): 28.9 nM

UUAUUAUACGUAGGAUAUUGAUGAUUGAUAGUACAAGAAGGACGAACAUGAGGAUCACCCAUGUAUAUUAAAAUGAGUUUGAAU [JR_SSNG1_Sub077] (Eterna round: R96, puzzle: Same State NG 1)
apparent KD of MS2 coat protein (input ligand: FMN 200 uM): 72.8 nM
apparent KD of MS2 coat protein [1]: 52.8 nM
apparent KD of MS2 coat protein (input ligand: none): 55.1 nM

UUCACCUUUUAUAACAUGAGGAUCACCCAUGUAUAUUGUACGUAGGAUAUCGAUGUUAGUUUUUUCGAGAAGGACGAUGUAAGU [JR_SSND3_Sub049] (Eterna round: R96, puzzle: Same State NG 3)
apparent KD of MS2 coat protein (input ligand: FMN 200 uM): 29.6 nM
apparent KD of MS2 coat protein [1]: 40.7 nM
apparent KD of MS2 coat protein (input ligand: none): 53.9 nM

UUCACCUUUUAUAACAUGAGGAUCACCCAUGUAUAUUGUACGUAGGAUAUCGAUGUUUGUUUUUUCGAGAAGGACGAUGUAAGU [JR_SSND3_Sub050] (Eterna round: R96, puzzle: Same State NG 3)
apparent KD of MS2 coat protein (input ligand: FMN 200 uM): 37 nM
apparent KD of MS2 coat protein [1]: 25.4 nM
apparent KD of MS2 coat protein (input ligand: none): 38.9 nM

UUCCCAGCGGGAGGAUAUGGUGCCUUGUUGGUGCUAGAAGGUCCAACAUGAGGAUCACCCAUGUGGGAGUGGUCGAAAGACCUC [SS NG10LRO09] (Eterna round: R96, puzzle: Same State NG 1)
apparent KD of MS2 coat protein (input ligand: FMN 200 uM): 224 nM
apparent KD of MS2 coat protein [1]: 186 nM
apparent KD of MS2 coat protein (input ligand: none): 318 nM

UUCCCAGCGGGAGGAUAUGGUGCCUUGUUGGUGCUAGAAGGUCCAACAUGAGGAUCACCCAUGUGGGAGUGGUUGAGAGACCUC [SS NG10LRO11] (Eterna round: R96, puzzle: Same State NG 1)
apparent KD of MS2 coat protein (input ligand: FMN 200 uM): 225 nM
apparent KD of MS2 coat protein [1]: 200 nM
apparent KD of MS2 coat protein (input ligand: none): 274 nM

UUCCCAUCGGGAGGAUAUGGUACCUUAUUGGUUCUAGAAGGUCCAACAUGAGGAUCACCCAUGUGGGAGUGGUCUAAUGACCUC [SS NG10LRO04] (Eterna round: R96, puzzle: Same State NG 1)
apparent KD of MS2 coat protein (input ligand: FMN 200 uM): 247 nM
apparent KD of MS2 coat protein [1]: 326 nM
apparent KD of MS2 coat protein (input ligand: none): 311 nM

UUCGAGUAGCAAGGAUAUCUUAUUUAGAUUUUAAGAGAAGGUGCUUCACAGCUACAUGAGGAUCACCCAUGUCUUUCUUCUUAU [JR_SSNG1_Sub065] (Eterna round: R96, puzzle: Same State NG 1)
apparent KD of MS2 coat protein [1]: 27.3 nM

UUCUAACAUGAGGAUCACCCAUGUCAUAUGACAUGAGGAUAUGUACAGACUUCGGUCUGUACAGAAGGCAUGUUAG [SS1 - 1011 Omei Mod 7] (puzzle: Same State 1)
apparent KD of MS2 coat protein [2]: 31.6 nM
apparent KD of MS2 coat protein [3]: 10.7 nM
apparent KD of MS2 coat protein [4]: 20.5 nM

UUCUCUUUUUAGAGACAAGCUUUUUGAUCACAUGAGGAUCACCCAUGUCUCGUCUUAUGAUCUACUUCGGUAGAUCU [BA Sensor hsa-mir-208a - 2 - 5] (puzzle: Sensor for hsa-mir-208a)
apparent KD of MS2 coat protein [2]: 155 nM
apparent KD of MS2 coat protein [3]: 13.9 nM
apparent KD of MS2 coat protein [4]: 144 nM

UUGAAGAACUAAGGAUAUUGAAUACAUAUGUUUAACAUGAGGAUCACCCAUGUGGGUUGCGGUAUCGAGAAGGUAGAUUACUAG [Mat - Same State NG 2 - JL mod - D10] (Eterna round: R96, puzzle: Same State NG 2)
apparent KD of MS2 coat protein [1]: 83.4 nM

UUGAAGAAUAAAGGAUAUUGAAUACAUAUGUUUAACAUGAGGAUCACCCAUGUGGGUUGCGGUAUCGAGAAGGUUAAUUACUAG [Mat - Same State NG 2 - JL mod - D11] (Eterna round: R96, puzzle: Same State NG 2)
apparent KD of MS2 coat protein (input ligand: FMN 200 uM): 151 nM
apparent KD of MS2 coat protein [1]: 124 nM
apparent KD of MS2 coat protein (input ligand: none): 139 nM

UUGAAGAAUUAAGGAUAUCGAGUCGUCAAAUUAAACAUGAGGAUCACCCAUGUGGGUUGUGGUAUCGAGAAGGUAAAUUACUAA [JR_SSNG2_Sub100] (Eterna round: R96, puzzle: Same State NG 2)
apparent KD of MS2 coat protein (input ligand: FMN 200 uM): 57.1 nM
apparent KD of MS2 coat protein [1]: 66.4 nM
apparent KD of MS2 coat protein (input ligand: none): 84.7 nM

UUGAAGAAUUAAGGAUAUUGAUUACAUAUGUUAAACAUGAGGAUCACCCAUGUGGGUUGCGGUAUCGAGAAGGUAAAUUAAAAG [Mat - same State NG 2 - JL mod - D78] (Eterna round: R96, puzzle: Same State NG 2)
apparent KD of MS2 coat protein (input ligand: FMN 200 uM): 171 nM
apparent KD of MS2 coat protein [1]: 123 nM
apparent KD of MS2 coat protein (input ligand: none): 146 nM

UUGAAUAAUUAAGGAUAUUGAGUACAUAUGUUUAACAUGAGGAUCACCCAUGUGGGUUGCGGUAUCGAGAAGGUAAAUUACUAG [Mat - same State NG 2 - JL mod - D67] (Eterna round: R96, puzzle: Same State NG 2)
apparent KD of MS2 coat protein (input ligand: FMN 200 uM): 145 nM
apparent KD of MS2 coat protein [1]: 83.8 nM
apparent KD of MS2 coat protein (input ligand: none): 125 nM
